From patent publication US20260116937A1 (CHARACTER BIOSCIENCES, published 2026)

B1: Var004 (engineered variant of FHL-1) (designed binder)
chain: EDCNELPPRRNTEILTGSWSDQTYPEGTQAIYKCRPGYRSLGNVIMVCRKGEWVALNPLRKCQKRPCGHPGDTPFGTFTLTGGNVFEYGVKAVYTCNEGYQLLGEINYRECDTDGWTNDIPICEVVKCLPVTAPENGKIVSSAMEPDREYHFGQAVRFVCNSGYKIEGDEEMHCSDDGFWSKEKPKCVEISCKSPDVINGSPISQKIIYKENERFQYKCNMGYEYSERGDAVCTESGWRPLPSCEEKSCDNPYIPNGDYSPLRIKHRTGDEITYQCRNGFYPATRGNTAKCTSTGWIPAPRCTLKPCDYPDIKHGGLYHENMRRPYFPVAVGKYYSYYCDEHFETPSGSYWDHIHCTQDGWSPAVPCLRKCYFPYLENGYNQNYGRKFVQGKSIDVACHPGYALPKAQTTVTCMENGWSPTPRCIRVSGGGGSGGGGSGGGGSTLKPCDYPDIKHGGLYHENMRRPYFPVAVGKYYSYYCDEHFETPSGSYWDHIHCTQDGWSPAVPCLRKCYFPYLENGYNQNYGRKFVQGKSIDVACHPGYALPKAQTTVTCMENGWSPTPRCIRVSFTL
notes: Tested as purified protein or as CHO culture supernatant; also called FHL-1 engineered variant
B2: Factor H-like protein 1 (FHL-1) (other)
chain: EDCNELPPRRNTEILTGSWSDQTYPEGTQAIYKCRPGYRSLGNVIMVCRKGEWVALNPLRKCQKRPCGHPGDTPFGTFTLTGGNVFEYGVKAVYTCNEGYQLLGEINYRECDTDGWTNDIPICEVVKCLPVTAPENGKIVSSAMEPDREYHFGQAVRFVCNSGYKIEGDEEMHCSDDGFWSKEKPKCVEISCKSPDVINGSPISQKIIYKENERFQYKCNMGYEYSERGDAVCTESGWRPLPSCEEKSCDNPYIPNGDYSPLRIKHRTGDEITYQCRNGFYPATRGNTAKCTSTGWIPAPRCTLKPCDYPDIKHGGLYHENMRRPYFPVAVGKYYSYYCDEHFETPSGSYWDHIHCTQDGWSPAVPCLRKCYFPYLENGYNQNYGRKFVQGKSIDVACHPGYALPKAQTTVTCMENGWSPTPRCIRVSFTL
notes: Control protein, purified or as CHO culture supernatant; also called native FHL-1
B3: complement factor H (CFH) (other)
chain: EDCNELPPRRNTEILTGSWSDQTYPEGTQAIYKCRPGYRSLGNVIMVCRKGEWVALNPLRKCQKRPCGHPGDTPFGTFTLTGGNVFEYGVKAVYTCNEGYQLLGEINYRECDTDGWTNDIPICEVVKCLPVTAPENGKIVSSAMEPDREYHFGQAVRFVCNSGYKIEGDEEMHCSDDGFWSKEKPKCVEISCKSPDVINGSPISQKIIYKENERFQYKCNMGYEYSERGDAVCTESGWRPLPSCEEKSCDNPYIPNGDYSPLRIKHRTGDEITYQCRNGFYPATRGNTAKCTSTGWIPAPRCTLKPCDYPDIKHGGLYHENMRRPYFPVAVGKYYSYYCDEHFETPSGSYWDHIHCTQDGWSPAVPCLRKCYFPYLENGYNQNYGRKFVQGKSIDVACHPGYALPKAQTTVTCMENGWSPTPRCIRVKTCSKSSIDIENGFISESQYTYALKEKAKYQCKLGYVTADGETSGSITCGKDGWSAQPTCIKSCDIPVFMNARTKNDFTWFKLNDTLDYECHDGYESNTGSTTGSIVCGYNGWSDLPICYERECELPKIDVHLVPDRKKDQYKVGEVLKFSCKPGFTIVGPNSVQCYHFGLSPDLPICKEQVQSCGPPPELLNGNVKEKTKEEYGHSEVVEYYCNPRFLMKGPNKIQCVDGEWTTLPVCIVEESTCGDIPELEHGWAQLSSPPYYYGDSVEFNCSESFTMIGHRSITCIHGVWTQLPQCVAIDKLKKCKSSNLIILEEHLKNKKEFDHNSNIRYRCRGKEGWIHTVCINGRWDPEVNCSMAQIQLCPPPPQIPNSHNMTTTLNYRDGEKVSVLCQENYLIQEGEEITCKDGRWQSIPLCVEKIPCSQPPQIEHGTINSSRSSQESYAHGTKLSYTCEGGFRISEENETTCYMGKWSSPPQCEGLPCKSPPEISHGVVAHMSDSYQYGEEVTYKCFEGFGIDGPAIAKCLGEKWSHPPSCIKTDCLSLPSFENAIPMGEKKDVYKAGEQVTYTCATYYKMDGASNVTCINSRWTGRPTCRDTSCVNPPTVQNAYIVSRQMSKYPSGERVRYQCRSPYEMFGDEEVMCLNGNWTEPPQCKDSTGKCGPPPPIDNGDITSFPLSVYAPASSVEYQCQNLYQLEGNKRITCRNGQWSEPPKCLHPCVISREIMENYNIALRWTAKQKLYSRTGESVEFVCKRGYRLSSRSHTLRTTCWDGKLEYPTCAKR
notes: Purified CFH used as control

What follows are binders tested against T1, human C3b (human, UniProt P01024 749-1663; P01024 23-667) (assay: ELISA on C3b-coated plates, absorbance at 450 nm).
T1 construct: Coated on ELISA plates
Protocol: A representative example of an FHL-1 engineered variant (e.g., a polypeptide of SEQ ID NO: 21) was compared with CFH and FHL-1 for C3b binding activity as presented in FIGS. 14A and 14B. […] In general, the data was derived from measuring binding on C3b coated plates via ELISA for test proteins (either as purified proteins or as culture supernatants from CHO cells transfected with expression vectors encoding test proteins). C3b binding activity was measured via absorbance at 450 nm. Mean+/−SEM absorbance values are shown with nonlinear sigmoidal 4PL fit. Of note, the FHL-1 engineered variant (e.g., Var 004, SEQ ID NO: 21) has increased C3b binding activity over native FHL-1.

T1 sequence (P01024 749-1663, chain 1 of 2): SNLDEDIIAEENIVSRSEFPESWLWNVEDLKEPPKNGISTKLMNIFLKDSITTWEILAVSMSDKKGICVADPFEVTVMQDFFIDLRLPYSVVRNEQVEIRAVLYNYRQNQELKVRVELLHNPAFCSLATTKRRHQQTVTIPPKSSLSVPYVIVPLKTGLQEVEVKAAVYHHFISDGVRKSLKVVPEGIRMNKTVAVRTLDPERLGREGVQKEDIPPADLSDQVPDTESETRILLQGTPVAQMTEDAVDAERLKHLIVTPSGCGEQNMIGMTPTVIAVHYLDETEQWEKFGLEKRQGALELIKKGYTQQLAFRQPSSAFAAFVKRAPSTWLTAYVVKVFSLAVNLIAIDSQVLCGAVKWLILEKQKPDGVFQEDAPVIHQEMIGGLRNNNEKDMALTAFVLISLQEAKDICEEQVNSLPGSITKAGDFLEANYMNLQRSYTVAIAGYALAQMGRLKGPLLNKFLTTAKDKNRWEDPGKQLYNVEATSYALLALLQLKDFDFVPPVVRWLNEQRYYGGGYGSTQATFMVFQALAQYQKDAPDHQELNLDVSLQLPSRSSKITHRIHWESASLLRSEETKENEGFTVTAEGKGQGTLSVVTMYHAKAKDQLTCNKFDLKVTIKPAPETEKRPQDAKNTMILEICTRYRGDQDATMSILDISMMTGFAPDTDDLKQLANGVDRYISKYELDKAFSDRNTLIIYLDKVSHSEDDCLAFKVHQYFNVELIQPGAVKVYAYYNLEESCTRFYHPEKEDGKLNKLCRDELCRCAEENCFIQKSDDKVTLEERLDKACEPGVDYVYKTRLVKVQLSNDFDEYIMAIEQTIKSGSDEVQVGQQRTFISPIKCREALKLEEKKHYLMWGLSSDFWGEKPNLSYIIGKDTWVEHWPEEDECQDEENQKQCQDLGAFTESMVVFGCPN
T1 sequence (P01024 23-667, chain 2 of 2): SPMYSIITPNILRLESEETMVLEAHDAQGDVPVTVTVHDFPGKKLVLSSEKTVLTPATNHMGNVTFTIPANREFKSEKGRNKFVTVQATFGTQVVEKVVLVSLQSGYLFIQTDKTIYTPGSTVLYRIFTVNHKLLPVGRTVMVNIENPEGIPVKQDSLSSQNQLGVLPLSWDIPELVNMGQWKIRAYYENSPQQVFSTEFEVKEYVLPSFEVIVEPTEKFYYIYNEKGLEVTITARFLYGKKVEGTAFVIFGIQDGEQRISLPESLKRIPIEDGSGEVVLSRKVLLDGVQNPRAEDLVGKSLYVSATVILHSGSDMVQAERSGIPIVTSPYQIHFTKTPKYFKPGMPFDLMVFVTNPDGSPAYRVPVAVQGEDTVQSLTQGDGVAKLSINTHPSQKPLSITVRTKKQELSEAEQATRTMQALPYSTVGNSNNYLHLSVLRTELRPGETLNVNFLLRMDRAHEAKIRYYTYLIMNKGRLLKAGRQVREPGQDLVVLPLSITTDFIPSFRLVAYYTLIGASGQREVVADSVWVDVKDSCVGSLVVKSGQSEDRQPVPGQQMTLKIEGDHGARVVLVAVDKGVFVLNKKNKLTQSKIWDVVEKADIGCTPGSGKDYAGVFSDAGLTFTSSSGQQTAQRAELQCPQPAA

binding result	Binder
binds	B1
binds	B2
binds	B3
